The RNAGym collection of RNA variant scans (doi:10.1073/pnas.2313332121)
Variants at the floor of the assay were thinned out.

B1: TPR 5TU (parent)
chain: GGAUCUUCUCGAUCUAACAAAAAAGACAAAUCUGCCACAAAGCUUGAGAGCAUCUUCGGAUGCAGAGGCGGCAGCCUUCGGUGGCGCGAUAGCGCCAACGUUCUCAACUAUGACACGCAAAACGCGUGCUCCGUUGAAUGGAGUUUAUCAUG

Variants of: B1
Assay: polymerase ribozyme fitness, log enrichment relative to wild type (log ratio); higher = more active; in vitro selection for triplet polymerase activity
Outline: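 Mutant libraries were PCR-built and transcribed for each subunit of a heterodimeric triplet polymerase ribozyme and selected for one round in triplicate at −7 °C, frozen, before gel excision of extended constructs and streptavidin-bead capture. Input and output libraries were Illumina-sequenced, keeping genotypes with ≥10 input reads and ≥1 read per output. Fitness is a logarithmic ratio of genotype to wild-type enrichment, in base 2, using inverse-variance-weighted replicate averages.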

Point of comparison: GGAUCUUCUCGAUCUAACAAAAAAGACAAAUAUGCCACAAAGCUUGAGAGCAUCUUCGGAUGCAGAGGCGGCACCCUUCGCUGGCGCGAUAGCACCAACGUUCUCAACUAUGACACGCAAUACGCGUGCUCCGUUGAAUGGAGUUUAUCAUG [C32A G74C G81C G94A A121U], “polymerase ribozyme fitness (log ratio)” value -4.03. Against it:
- GGAUCUUCUCGAUCUAACAAAAAAGACAAAUAUGCCACAAAGCUUGAGAGCAUCUUCGGAGGCAGAGGCGGCAGCCUUCGGAGGCGCGAUAUCGCCAAGGUUCUCAACUAUGACACGCAAAACGCGUGCUCCGUUGAAUGGAGUUUAUCAUG [C32A U61G U82A G92U C99G] — lower, ≤ -4.2
- GGAUCUUCUCGAUCUAACAAAAAAGACAAAUAUGCCACAAAGCUUGAGAGCAUCAUCGGAUGCAGAGGCGGCAGCUUUCGGUGGCGCGGUAUCGCCAACGUUCUCAACUAUGACACGCGAAACGCGUGCUCCGUUGAAUGGAGUUUAUCAUG [C32A U55A C76U A89G G92U A119G] — lower, ≤ -4.2
- GGAUCUUCUCGAUCUAACAAAAAAGACAAAUGUGCCGCAAAGCUUGAGAGCAUCUUCGGAUGCAGAGGCGGCAGCCUUCGGUGGCGCGAUAGCGUCAACGUUCUCAACUAUGACACGCAAAACGCGUGCUCCGUUGAAUGGAGUUUAUCAUG [C32G A37G C95U] — higher, -3.7
- GGAUCUUCUCGAUCUAACAAAAAAGACAAAUAUGCCACAAAGCUUGAGAGCAGCUUCGGAUGCAGAGGCGGCAGCCUUCGGUGGUGCGAUAGCGCGAACGUUCUCAACUAUGACACGCAAAACGCGUGCUCCGUUCAAUGGAGUUUAUCAUG [C32A U53G C85U C96G G136C] — lower, ≤ -4.2
- GGAUCUUCUCGAUCUAACAAAAAAGACAAAUAUGCCACAAAGCUUGAGAGCAUCUUCGGAUGCAGAGGCGGCAGCCUUCGGUGGUGCGAUAGCGCCAACGUUCUCAACUAUGACACGCAAAACGCGUGCUCCGUUGAAUGGUGUUUAUCAUG [C32A C85U A142U] — lower, ≤ -4.2
- GGAUCUUCUCGAUCUAACAAAAAAGACAAAUAUGCCACAAAGCAUGAGAGCAUCUUCGGCUGCAGAGGCGGCAGCCUUGGGUGGCGCGAUAUCGCCAACGUUCUCAACUAUGACACGCAAAACGCGUGCUCCGUUGAAUGGAGUUUAUCAUG [C32A U44A A60C C79G G92U] — lower, ≤ -4.2
- GGAUCUUCUCGAUCUAACAAAAAAGACAAAUGUGCCACAAAGCUUGAGUGCAUCUUCGGAUGCAUAGGCGGCAGCCUUCGGUGGCGCGAUAGUGCCAAGGUUCUCAACUUUGACACGCAAAACGCGUGCUCCGUUGAAUGGAGUUUUUCAUG [C32G A49U G65U C93U C99G A110U A147U] — lower, ≤ -4.2
- GGAUCUUCUCGAUCUAACAAAAAAGACAAAUAUGCCACAAAGCUGAAGAGCAUCUUCGGAUGCAGAGGCGGCAGCCUUCGGUGGCGCGAUAGCGCCAAGGUUGUCAACUAUGACACGCAAAACGCGCGCUCCGUUGAAUGGAGUUUAGCAUG [C32A U45G G46A C99G C103G U127C U148G] — lower, ≤ -4.2
- GGAUCUUCUCGAUCUAACAAAAAAGACAAAUGUGCCCCAAAGCUUGAGAGCAUCUUCGGAUGCAGAGGCGGCAGCCUUCGGUGGCGCGAUAGCGCCAACGUUCUCAACUAUGACACGCAAAACGCGUGCUCCGUUGAAUCGAGUUUAUCAUG [C32G A37C G140C] — lower, ≤ -4.2
- GGAUCUUCUCGAUCUAACAAAAAAGACAAAUAUGCCACAAAGCUUGAGAGCAUCUUCGGAUGCAGAGGCGGCAGCCUUCGGUGGCGAGAUAGUGCCAACGUUCUCAACUAUGACACGCAAAACGCGUGCUCCGUUGAAUGGAGUUUAUCAUG [C32A C87A C93U] — lower, ≤ -4.2
- GGAUCUUCUCGAUCUAACAAAAAAGACAAAUGUGCCACAAUGCUUGAGAGCAUCUUCGGAUGCAGAGGCGGCAGCCUUCGGUGGCGCGAUUGCGCCAACGUUCUCAGCUAUGACACGCAAAACGGGUGCUCCGUCGAAUGGAGUUUAUCAUG [C32G A41U A91U A107G C125G U135C] — lower, ≤ -4.2
- GGAUCUUCUCGAUCUAACAAAAAAGACAAAUAUGCCACAAAGCUUGAGAGCAUCUUCGGAUGCAGAGGCGGCAGCCUUCGGCGGCGCGAUAGCGCCAACGUUCUCAACUAUGACACGCAAAACGCGUGCUCCGUUGAAUGGAGUUUAUCAUG [C32A U82C] — lower, ≤ -4.2
- GGAUCUUCUCGAUCUAACAAAAAAGACAAAUAUGCCACAAAGCUUGAGAGCAUCUUCGGAUGCAGAGGCGGCAGCCUUCGGUGGCGUGAUAGCGCCAACGUUCUCAACUAUGACACGCAAAACGCGUGCUCCGUUGAAUGGAGUUUAUCAUG [C32A C87U] — higher, -3.44
- GGAUCUUCUCGAUCUAACAAAAAAGACAAAUGUGCCACAAAGCUUGCGAGCAUCAGCGGAUGCAGAUGCGGCAGCCUUCGGUGGCGCAAUAGCGCCAACCUUCUUAACUAUGACACGCAAAACGCGUGCUCCGUUGUAUGUAGUUUAUCAUG [C32G A47C U55A U56G G67U G88A G100C C105U A137U G141U] — lower, ≤ -4.2
- GGAUCUUCUCGAUCUAACAAAAAAGACAAAUGUGCCACAAAGCUUGAGCGCAUCUUCGGAUGCAGAGGCGGCAGCCUUCGGUGGCGCGAUAGCGCCAACGUUCUCAACUAUGACACGUAAAACGCGUGCUCCGUUGAAUGGAGUUUAUCAUG [C32G A49C C118U] — lower, ≤ -4.2
- GGAUCUUCUCGAUCUAACAAAAAAGACAAAUAUGCCACAAAGCUUGAGAGCAUCUUCGGAUGCAGAGGGGGCAGCCUUCGGUGGCGCGAUAGCGCCAUCGUUCUCAACUAUGACACGCAAAACGCGUGCUCCGUUGAAUGGAGUUUAUCAUG [C32A C69G A98U] — higher, -1.51
- GGAUCUUCUCGAUCUAACAAAAAAGACAAAUGUGCCACAAAGCUUGAGCGCAUCUUCGGAUGCAGAGGCGGCAGCCUUCGGUGGCGCGAUAGCGCCAACGUUCUCAACUAUGACACGCAAAACGCGUGCUCCGUUGAAUGGAGUUUAUCAUG [C32G A49C] — lower, ≤ -4.2
- GGAUCUUCUCGAUCUAACAAAAAAGACAAAUGUGCCGUAAAGCUUGAGAGCAUCUACGGAUGCAGAGGCGGCAGCCUUCGGUGGCGCGAUAGCGCCAACGUUCUCAACUAUGACACGCCAAACGCGUGCUCCGUUGAAUGGAGUUUAUCAUG [C32G A37G C38U U56A A119C] — lower, ≤ -4.2
